Source: publication doi:10.1101/2025.06.10.658772 (bioRxiv, 2025)

How the values were obtained:
[1] = target: T1, C-terminally large NanoLuc fragment (LgBiT)-fused Dr-GPR25 (zebrafish (Danio rerio), UniProt A0AC58GT18 1-377); assay: cell-based or functional assay
T1 sequence: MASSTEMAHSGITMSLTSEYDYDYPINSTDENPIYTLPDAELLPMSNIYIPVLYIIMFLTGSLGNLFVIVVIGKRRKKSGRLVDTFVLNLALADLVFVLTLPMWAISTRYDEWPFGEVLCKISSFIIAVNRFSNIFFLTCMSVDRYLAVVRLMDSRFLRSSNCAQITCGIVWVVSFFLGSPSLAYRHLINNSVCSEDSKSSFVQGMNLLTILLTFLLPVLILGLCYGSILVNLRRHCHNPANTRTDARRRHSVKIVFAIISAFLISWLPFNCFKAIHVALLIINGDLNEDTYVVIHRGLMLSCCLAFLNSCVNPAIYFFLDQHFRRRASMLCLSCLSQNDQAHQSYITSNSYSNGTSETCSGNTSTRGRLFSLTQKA

[2] = target: T2, C-terminally LgBiT-fused Lc-GPR25 (coelacanth (Latimeria chalumnae), UniProt H3AQL3 1-365); assay: cell-based or functional assay
T2 sequence: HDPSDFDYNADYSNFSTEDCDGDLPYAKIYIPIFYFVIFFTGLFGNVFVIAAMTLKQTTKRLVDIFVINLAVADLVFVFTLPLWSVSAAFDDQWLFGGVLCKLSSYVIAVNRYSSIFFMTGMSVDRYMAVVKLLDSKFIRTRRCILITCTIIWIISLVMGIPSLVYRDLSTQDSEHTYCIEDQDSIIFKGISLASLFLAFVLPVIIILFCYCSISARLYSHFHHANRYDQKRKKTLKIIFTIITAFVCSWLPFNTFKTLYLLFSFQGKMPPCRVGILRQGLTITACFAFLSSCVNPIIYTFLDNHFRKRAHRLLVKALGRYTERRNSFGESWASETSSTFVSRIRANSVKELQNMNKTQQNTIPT

B1: N-terminally 6×His-tagged wild-type (WT) human CXCL17 (ligand)
chain: SSLNPGVARGHRDRGQASRRWLQEGGQECECKDWFLRAPRRKFMTVSGLPKKQCPCDHFKGNVKKTRHQRHHRKPNKHSRACQQFLKQCQLRSFALPL
Q: Which “NanoBiT-based β-arrestin recruitment (SmBiT-ARRB2), EC50 of the dose curve” value [1] does the source give for B1 here?
A: ~60 nM

Q: And the “NanoBiT-based β-arrestin recruitment (SmBiT-ARRB2), maximal effect” value [1]?
A: ~5 fold over background

Q: What about the “NanoBiT-based β-arrestin recruitment (SmBiT-ARRB2), EC50 of the dose curve” value [2] of the same binder?
A: ~300 nM

Q: And the “NanoBiT-based β-arrestin recruitment (SmBiT-ARRB2), maximal effect” value [2]?
A: ~3 fold over background
